Measurements published in the domain aggregation screens of Martell et al. (2025).

Assay: soluble fraction after stress (log2 fold change); higher = more stays soluble; pooled small domains, quantitative proteomics
Settings: stress: 75 degC
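Further: 20 min heating vs room temperature control held 20 min.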

| Sequence | soluble fraction (log2) |
| --- | --- |
| HMIGILSDREAEILALLDEGLTNKAIGRRLNLAEPTVKFHLKNLYAKLGVGRRQLAVNVAKGSGLLNSD | -1.4 |
| HMIGIRLKELVLKNQSAWVGLRVSELDISRKTMIVMIRRGDKMLIPNGSTILRSGDVLLLYTR | -0.682 |
| HMIGITTANLNVRTGTDTNYTSIAILPKGTKVNILEENVKPGWYKIQFDEIYAFVSSKYIKIQS | -3.56 |
| HMIGMDMQELIGRYKGDPDEMGKIELAAMSMLKLSEDMSSDHVLQKSKLRQDGLWLLKYVQE | -0.637 |
| HMIHEQSLHKIRNFIGSLPESLRTAFTLREQDGLSYEEIGKITNTPIGTVRSRIYRARESILDHINQE | -1.23 |
| HMIHIGAQEALGEFQDEEGNLTASKKEVVAALVKKSKEVSFPTSYEYEVAARMAADEYNDAGQRMA | 0.167 |
| HMIHKTDAINLGQRLLKSSLKEFDVSLKDIPNKTLMYILSEYKFNSLDDLYREIGLGNVIPKLVALRMAP | -0.585 |
| HMIHTYVETRKVGNNDGLIRVDNKYYRVPQHLVGMKVQIQIDEATISVLQGGVMVATLDKTADVFNPQA | -3.24 |
| HMIIDPQIRTLWTSQIIDILKSNPKRSIRSILELYPSNKESWVLIILQELIGEEKIIRDLDYLYFNK | -1.79 |
| HMIIIMKMGADESQVQETIKRIKDLGFNTHLSKGENRTIIGVIGDVSSIDESDVERLRATPYIAEVVRVS | -0.455 |
| HMIIIPKKDYDVSQLDNLVSWLKDRGLEVHISRGENLTVIGLIGDTSKIDIDLIRSLDVVEEVKRIQ | -0.749 |
| HMIIVMASSKKEDVAHVVHKIEELGYKAHVIVGVERTVVAAVGDERGKERLISLEALPHVEKVFPILK | -2.16 |
| HMIKEVEYSQFLQMTDQGEVGKVEINEQENSILFTDKAEKNIYKTGMVEDAELSMRLYEAGIPFSGQI | 0.101 |
| HMIKEYEVLNYVTYEYDEIKKKLEEDFGIIVLMKEAYSDETPAGIIMDQDVEQGRIFKEGATNTITFTVS | -0.582 |
| HMIKLSEAEWKVMKLLWEESPKTMMQITNLLKETTGWTKHTVMTFLKRMEEKKAIHYEEGGRAKLYYP | -0.863 |
| HMIKVASVDGASDELAHEIREIMPLDFPVSYFDLDIKYLHKVLNDIPAVESAAIKVTVSGVLQIDISER | 0.569 |
| HMILALAISSEEDDARIYATYADRLREAYPASARVFEGMVDEEHEHRRRLIDLFQRRFGDTIPLVRREHV | -0.446 |
| HMILNPADEEKMNLINFELQQRGLEINDKEMQYIFTHHSRDLNSLLNLAEKLDEISHQEKKSISINLIKKI | -0.0616 |
| HMILNWSEYTRSEIIELARDLSPDKYMIIDDINTYSKMKLLPSQAFIAEMFGSLRQFQKEAWGRE | -1.62 |
| HMILPKFNQLLGQMGENIKLARKRRKLTAVQVSERAGIARSTLYLIEKGDASVSLGAYFNVLRVLG | -1.67 |
| HMIMEVDYGTFMKMTEENAIGRVQMDSTEIIFTDKENTQVYSTGIMYDPDLTQRLYDAGAVFA | -0.536 |
| HMIMGTIEKRGPFSFRIGVQVRLPDGSWEWIRDTIHVSPDLSARAARKQAEMALARLEADVYEGKRKPD | -2.18 |
| HMIMLDRILKIMDYNKFTPSEFADVLEIDRSRLSHILNGRNKPSLEIVMKILEKFPEISSDWLLFGSGNML | -2.73 |
| HMIMNEYEELRDRYLIGQIWKIGDLIEAKGIEGKIIQRGTNYVTFNDNNGKVHKAWLHEIKYEQ | -0.433 |
| HMIMNKEIPVVADEFVEKEFGTGAVKLTPAHDPNDYESGERHGLEVVEVFDETGKMNDLVPEYEG | 0.757 |
| HMIMTGSIQEKNGKYYTVLNIKDKNGKYKKKWQTTGLPVKGNKRKAEQILRRRIAEYEANQL | -0.861 |

| Sequence | soluble fraction (log2) |
| --- | --- |
| HMIMTHSALLEKDGFDIVKVHFERPNDDGFDFLDMTLPGEIVYKSFGFSEDEILKLKRYAKNNSSLIWDF | -2.5 |
| HMINEDMTQSDRMELWGRLIDVVEDWLAEKGITEEDIPNEEREGVEDAAIIFGDDYDYLADRFSEVIGISR | -1.2 |
| HMINFKVKNVQDVGSRLDKFLVTNIPEFSRSKIQKHIKNGKVMVNGLLKKTGYKLEINDEINILNN | -0.521 |
| HMINLDYILELIFEKNNKTKDKTALIEEIRGVIRASVGNRAKESLIVDFINDTDLDTITDKASIIESFFEY | -2.97 |
| HMINLTKVGNFISIIKLQQIWTIDELLKKVDINYDELLYLLTILSDIYSKNGEYFFDFDIDAENNKILFNN | 0.0266 |
| HMINVGYKFKQIRENAGLTLKQVSAMSGLSVSFISQIERGVVDPSWSSLKKISAALNIKLKDLF | -2.82 |
| HMIPDLPAIGENLYRERKRQQLSMAELAAASGISKAMLSQIEADKVNPTIATLWKIAHALHVDLESLISGG | -0.965 |
| HMIPDPEKVMFDGGIRLLTQAGITEGKARSILGKWKRDHETERIIAALGAAQREGAIEPVSFIERVLRN | -0.24 |
| HMIPKIIDITDLNEEVREVIEEYMKRKRVEKYHIYQDSKGQIFIISGSAIIRYDSKLNNLYYL | -2.45 |
| HMIPLKTEAIPVSYGDGAAIIRSLAVAFPSRTFHWDAQTRRIIGQALDEEWQVIRSLVWQLDIP | -1.83 |
| HMIPLSDEETILLKLLEATETHLDALIRGSQLSAAKVSVVLMGMEMKRLVKRLPGQMYQRWD | -2.13 |
| HMIPRNLEDLVRENQIGLVILKIVEIIGEDNIRDLDPETIYFINRILNELNLKKIRNNILSEALPPR | -1.36 |
| HMIPSEQYNTALTEIGLSTRAHNSLRRAGIMTLGQLIEKTRDGLPPLPGFGDKSQVEVQDLLTGLGYPI | -0.187 |
| HMIPSGISEHPISKLPLSMSIIHRLELAGIKTIGDITGENFSRLQEIPRIGKVTAKRILEAIQSYSEQLP | -0.401 |
| HMIPYQDPLPKGAEESLLSKYPGFEITGVHFVNDTNFIGYKVRLERGEDREEISLDVNGKFL | -0.308 |
| HMIQADFIPQVEQRLADRGLSMSGDVMAAFLDRAGYGLRHVSNEIEKLSLYLGDRKKVTVEDVVQMVAPVR | -0.381 |
| HMIQAGDLVFIWNPKKGDNFLIKVTPGMSQGTHFGQIKHTELMEREYGEGIVTPKGEVYYLLRPTLAGYTR | -1.21 |
| HMIQIGEQIRYYRTKIGISQEALALMADINPAYIGQIERGIKSPTVNTIKKIANAMGINLHTLFT | -2.94 |
| HMIQKTHPALEIVKEYFSSQAASEFEAERFFNYYTSNGWLIGGKTKMKDWQAAARNWILNTAK | -0.999 |
| HMIQNEITLMLQVNGKLRGQIQVPSDASKEQIEQLAKDSEAAQKALAGASPKKIIVVPGRLVNIV | -0.792 |
| HMIQQFTYAFAKDKGVVVLPGRDVLTLGMRAGADPLVLLEARRALGSSFELEPLDRDTYERTLADVFTADA | -1.39 |
| HMIQRLNVNTEVLSTYIRNSNTPIEYLRQKLPNIDKFLKGELEPTFNQVYALSKLINIPTGLLLLKEPIS | -1.86 |
| HMIQSEQIPFSKFLKEVDSGRVVQVEIQGNNINGVLSDGSKFKTYSPNYPELVGKLSDKGVSIVASPV | 0.091 |
| HMIQTKNVTFTINEKTKIANIPLKSLKILSQEDNRITLSYEKNSLKIDEIISYFSDKNINILDITTD | -1.59 |
| HMIQYRKILELHFKDISQRTISTSVGSSRNTVSDVIKRSEQLGLERLTDNMNNRWLEEFLFPEKQ | -4.15 |
| HMIRALVPGQTLHGEIVGRNGGEVQVRLAEDMILNARVDQNIYLELGKDLTFEVKNNGATLTLSPL | -0.42 |

| Sequence | soluble fraction (log2) |
| --- | --- |
| HMIRDTTMYPVSVNGKKRYEWTVSKSISDDELKQQVLELEEIKKWIEGHEIKKLIFVPGRAINIV | -0.696 |
| HMIRDVDYNTFVSMVQEGKVGQVEIQEQNNRILFTDKDERTVYKTAMVPDSDLISRLLEAGVSTS | 0.359 |
| HMIRTGEVVTGKVINVKEDQIILNIGFKSDGIITRNEYTNDNSLDLRTVVHEGDEIEAKVLKVNDGEGQVV | 0.401 |
| HMIRVGRPQYKRGEFVSFDFDNGRKKTEMYGRVDVIDSYGTFGQGREVSYDIRASDGILYKHIPESSVYGF | -1.17 |
| HMIRVVSIEDQPWFVAADVLKSLGMPTDKGVGKYLLALGSDERMLTTHGQIGGKGMAVTTIISESGLY | -0.67 |
| HMISDAEWKIMNVLWEEQPRTMMQITKELQEETGWTKHTVMTYLKRMESKKIIHYVEGEKAKLYYS | -0.133 |
| HMISDDLYQAVLDFTLTQDTISISRLQQNFNLGWPRARQLYDQLMQNGIIEPPDEANSAKGAVVIANKRG | 0.697 |
| HMISIKEAVFPFSRFPGVDTLLGPEMKSTGEVMGLADNFGHAYAKSQIASGSKLPESGTLFVSVKNSD | -0.467 |
| HMISKRFQIDEENAHKRIDIFLSHEFDSISRGIVQELIVKGEVLVNDKVTKRNYKLKTGDLVDITINL | -2.98 |
| HMITDQQKEQLSSLLKQAEAALAKAAANDQVLAAHKDEAVELLKSTSATSADAADLINELTELLKPYQ | 0.973 |
| HMITEDQVIARIGLLSPAEKSLLKDKLERFRRLTLSEQQHLREFHSALDNHDKRTDLLNVLRKYNDWVNQL | -1.99 |
| HMITEQEFQRVAAYVKNKAGINLNEKKVLVQGRLDSYMQRKGYSSYDEFMDRVERFPTGPEAEDLMNALTT | -0.0412 |
| HMITFRINQQSQVGLRLDKFIVQQMPDYSRTRIQSWIKTKNILVNGEGKKSGYALEFDDLVEVTIPE | -4.81 |
| HMITGREMDVLEALWSSEKPLVASDIPKMKPSLSISSVQLALRNLVKKKLVEVADIVYSGTVLSRSYRP | 0.0724 |
| HMITIDNYFNKEKELDFSSFPEALRKGHGFVSKATAHGSSWVSYHSSDAIKKTIDIYLSKLNEYLSNNAKA | -1.08 |
| HMITLYDLLGVSKTASSQEIKTAFKKKALQYHPDKNDGNPDKEEIFKRINMAYQVLGQPQSRANYDFSITP | -0.483 |
| HMITNMIIIMKPNASEEAIEKVKHLIESKGLQAHLSKGDEVTIVGVVGDKTRLHDSNIEISEGVDKIVNVT | 0.497 |
| HMITPAGVPPALLPVFDQFTLPDGTLRRGAVAAALRALYGPDAPQSGKRYQMEYDRVMAWHSQYFTSLH | -0.759 |
| HMITPKQTAETLGIATSTLRRWASEFEPFLSLRTGVKRTYTTDDITTLKRVKDLFAQGLKTEQVREAL | -0.287 |
| HMITPNQAAVTLKVSTSTLRRWSSDFEPFLSPRKGVKRLYTIEDIATLKRIQGLYKQGMNTAQVQA | -2.25 |
| HMITQQEFQQKLEALLSRAEAESFHIKKEEAESFFSGDELTGEQMKLVFDYLLSKKIIVEGYLK | -0.918 |
| HMITTEEVLNRIRKKVDHPATIRELQKALSIADDDRHRFRRRIRTLVASGALVRIRGNRYGLPSK | -0.213 |
| HMITTWAGKATTDVYGRVDANPKADAVLVIKTGWTVQVVGSKTAPDGGTWYKLIYNGKTMYANSKFIVK | -3.65 |
| HMITVEAPMPGKVLSVNVKAGDKVEAGDVLLILEAMKMQNEIMAPEDGTVSDVRVSAGDTVATGDVMVV | 0.0808 |
